Here are results for five molecules from US20230025129A1 (KYMAB, published 2023).

For assay [1], the target named is T1, human matriptase-2 ECD protein his tag (human, UniProt Q8IU80 78-811).
T1 sequence: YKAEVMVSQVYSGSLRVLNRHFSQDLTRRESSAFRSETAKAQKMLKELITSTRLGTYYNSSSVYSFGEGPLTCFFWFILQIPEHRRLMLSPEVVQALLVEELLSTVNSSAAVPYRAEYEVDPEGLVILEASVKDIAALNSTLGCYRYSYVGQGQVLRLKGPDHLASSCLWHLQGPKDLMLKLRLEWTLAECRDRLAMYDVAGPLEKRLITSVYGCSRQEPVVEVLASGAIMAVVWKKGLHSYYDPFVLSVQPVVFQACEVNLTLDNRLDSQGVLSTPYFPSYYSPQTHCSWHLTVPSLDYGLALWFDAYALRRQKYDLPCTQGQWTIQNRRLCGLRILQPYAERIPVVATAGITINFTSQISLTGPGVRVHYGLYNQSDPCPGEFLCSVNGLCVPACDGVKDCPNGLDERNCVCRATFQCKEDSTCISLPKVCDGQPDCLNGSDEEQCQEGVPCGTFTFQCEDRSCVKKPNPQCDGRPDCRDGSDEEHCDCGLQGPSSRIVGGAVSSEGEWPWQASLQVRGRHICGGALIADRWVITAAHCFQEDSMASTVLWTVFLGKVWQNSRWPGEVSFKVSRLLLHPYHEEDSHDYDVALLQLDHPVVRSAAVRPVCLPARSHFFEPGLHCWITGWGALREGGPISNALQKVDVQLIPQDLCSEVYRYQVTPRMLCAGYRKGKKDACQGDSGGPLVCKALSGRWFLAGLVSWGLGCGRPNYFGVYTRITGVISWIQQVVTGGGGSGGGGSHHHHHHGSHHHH
Put plainly: cell-based or functional assay.

Assay [2] addresses T2, mouse matriptase-2 ECD protein his tag (mouse, UniProt Q9DBI0 80-811).
T2 sequence: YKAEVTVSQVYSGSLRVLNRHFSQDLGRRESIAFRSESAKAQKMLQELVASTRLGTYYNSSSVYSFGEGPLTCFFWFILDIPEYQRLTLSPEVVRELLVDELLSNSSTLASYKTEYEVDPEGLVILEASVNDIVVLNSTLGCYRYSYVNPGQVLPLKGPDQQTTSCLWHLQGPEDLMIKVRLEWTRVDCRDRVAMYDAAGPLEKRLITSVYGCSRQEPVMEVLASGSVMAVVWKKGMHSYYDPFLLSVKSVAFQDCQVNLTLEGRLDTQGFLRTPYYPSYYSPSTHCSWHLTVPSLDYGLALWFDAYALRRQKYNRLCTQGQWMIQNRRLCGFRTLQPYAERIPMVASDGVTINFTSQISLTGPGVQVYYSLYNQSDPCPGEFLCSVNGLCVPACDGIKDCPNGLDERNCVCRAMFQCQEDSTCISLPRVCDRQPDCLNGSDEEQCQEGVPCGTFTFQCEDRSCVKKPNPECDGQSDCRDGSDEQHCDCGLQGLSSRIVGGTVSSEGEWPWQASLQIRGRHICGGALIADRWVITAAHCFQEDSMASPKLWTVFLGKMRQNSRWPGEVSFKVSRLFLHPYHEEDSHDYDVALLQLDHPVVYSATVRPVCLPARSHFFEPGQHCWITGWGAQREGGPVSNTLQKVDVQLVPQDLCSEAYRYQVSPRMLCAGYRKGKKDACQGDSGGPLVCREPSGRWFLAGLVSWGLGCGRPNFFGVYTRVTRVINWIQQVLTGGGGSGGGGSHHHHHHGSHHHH
Nature of the assay: cell-based or functional assay.

The target in assay [3] is T3, human MTP-2 expressed on HEK293 cells (human, UniProt Q8IU80 1-811).
T3 sequence: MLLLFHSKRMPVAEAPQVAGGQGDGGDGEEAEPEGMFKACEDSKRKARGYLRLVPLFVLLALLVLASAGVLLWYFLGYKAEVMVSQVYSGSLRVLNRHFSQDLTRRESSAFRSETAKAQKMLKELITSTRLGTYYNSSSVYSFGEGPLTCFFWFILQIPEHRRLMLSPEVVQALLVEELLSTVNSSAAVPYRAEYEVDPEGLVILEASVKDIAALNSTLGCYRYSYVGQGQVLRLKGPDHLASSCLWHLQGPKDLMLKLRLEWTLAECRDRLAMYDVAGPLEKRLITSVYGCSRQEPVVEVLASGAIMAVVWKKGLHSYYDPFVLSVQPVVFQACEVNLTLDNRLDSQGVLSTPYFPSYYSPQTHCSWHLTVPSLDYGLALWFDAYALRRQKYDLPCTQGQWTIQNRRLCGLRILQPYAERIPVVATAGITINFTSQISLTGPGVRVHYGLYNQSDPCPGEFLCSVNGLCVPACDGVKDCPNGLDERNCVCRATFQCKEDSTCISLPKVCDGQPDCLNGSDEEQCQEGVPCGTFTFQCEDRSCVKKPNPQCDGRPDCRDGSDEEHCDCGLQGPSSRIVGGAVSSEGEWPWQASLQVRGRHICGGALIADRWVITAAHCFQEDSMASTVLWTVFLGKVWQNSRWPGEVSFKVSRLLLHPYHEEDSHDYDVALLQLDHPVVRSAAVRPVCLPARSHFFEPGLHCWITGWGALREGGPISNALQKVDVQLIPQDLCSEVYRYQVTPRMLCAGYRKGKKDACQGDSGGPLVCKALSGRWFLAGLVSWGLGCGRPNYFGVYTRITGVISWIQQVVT
Nature of the assay: cell-based or functional assay.

The target of assay [4] is T4, human matriptase-2 mask ECD protein his tag (human, UniProt Q8IU80 78-576).
T4 construct: MTP-2 ECD without the serine protease domain, with C-terminal linker and His tag; also called headless huMTP-2 ECD 78-576 aa; headless human MTP-2 ECD
T4 sequence: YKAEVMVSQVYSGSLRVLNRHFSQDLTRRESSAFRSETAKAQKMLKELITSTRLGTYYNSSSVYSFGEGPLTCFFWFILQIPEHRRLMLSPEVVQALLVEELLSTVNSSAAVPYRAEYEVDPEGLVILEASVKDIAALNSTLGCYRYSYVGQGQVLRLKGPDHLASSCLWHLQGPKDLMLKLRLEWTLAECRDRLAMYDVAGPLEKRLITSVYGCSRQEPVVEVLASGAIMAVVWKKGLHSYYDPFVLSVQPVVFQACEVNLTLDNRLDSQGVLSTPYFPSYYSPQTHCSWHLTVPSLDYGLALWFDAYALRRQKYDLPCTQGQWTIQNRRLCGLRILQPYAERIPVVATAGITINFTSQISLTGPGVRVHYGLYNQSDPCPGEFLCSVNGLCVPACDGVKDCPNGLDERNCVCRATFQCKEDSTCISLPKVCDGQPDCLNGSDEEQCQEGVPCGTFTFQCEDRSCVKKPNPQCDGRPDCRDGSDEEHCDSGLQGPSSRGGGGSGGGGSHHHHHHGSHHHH
Put plainly: SPR, antibody captured, headless ECD as analyte. As to the method:
(§1) Off-rate screening was performed by surface plasmon resonance (SPR), using a Biacore 8K system (GE Healthcare). Anti-human Fc mix (˜1000 RU) were immobilised in both active and reference channels in HBS-P+ buffer (GE BR100671) pH 7.4. Anti-MTP-2 hulgG4PE antibodies were then captured for 60 sec at 10 μl/min at 1 μg/ml concentration (approximatively 35 and 50 RU were captured) only on the active channel. MTP-2 ECD protein analytes were then injected (at 100, 25, 6.25, 1.56 and 0 nM concentrations) for 120 sec (association time) at 30 μl/min and dissociation monitored for 600 sec. Multiple cycle kinetics mode was used with all 8 channels being used. Reference and background were subtracted from the sensorgrams for each antibody and data was fitted using a 1:1 interaction model in the Biacore evaluation software. Rmax, ka, kd globally fitted, RI=0.
Binding was also assessed using the above SPR method with “headless” huMTP-2 ECD 78-576 aa instead of the full ECD. Headless ECD corresponds to the MTP-2 ECD without the serine protease domain.
On the technique in general: Surface plasmon resonance follows binding to a sensor surface in real time, without labels.

For assay [5], the target named is T1, human matriptase-2 ECD protein his tag. Put plainly: SPR (Biacore 8K), huIgG4PE captured on anti-human Fc, MTP-2 ECD as analyte, 1:1 fit. As to the method: as §1
Assay [6] concerns the target T2, mouse matriptase-2 ECD protein his tag. Described as above. Here is the method: as §1

B1: NORI-010 (antibody, human IgG4 S228P, lambda)
heavy: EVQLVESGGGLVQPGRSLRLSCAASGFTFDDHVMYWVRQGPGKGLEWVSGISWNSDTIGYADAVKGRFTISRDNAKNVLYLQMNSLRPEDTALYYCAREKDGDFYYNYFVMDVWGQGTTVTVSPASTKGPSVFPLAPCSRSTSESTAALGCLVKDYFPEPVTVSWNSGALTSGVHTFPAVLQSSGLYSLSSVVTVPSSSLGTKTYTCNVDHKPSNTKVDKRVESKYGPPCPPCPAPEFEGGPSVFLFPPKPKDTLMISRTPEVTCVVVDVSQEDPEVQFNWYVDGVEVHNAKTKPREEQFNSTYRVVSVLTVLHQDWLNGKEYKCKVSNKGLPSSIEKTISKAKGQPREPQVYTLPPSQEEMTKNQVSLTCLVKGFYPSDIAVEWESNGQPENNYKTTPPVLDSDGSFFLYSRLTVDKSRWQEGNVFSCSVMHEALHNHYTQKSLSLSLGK
light: QSALTQPPSASGSPGQSVTISCTGTSSDVGFYNFVSWYQQHPDKAPKVMIYEVSKRPSGVPDRFSGSKSGNTASLTVSGLQAEDEADYYCSSYAGSNKVVFGGGTKLTVLGQPKAAPSVTLFPPSSEELQANKATLVCLISDFYPGAVTVAWKADSSPVKAGVETTTPSKQSNNKYAASSYLSLTPEQWKSHRSYSCQVTHEGSTVEKTVAPTECS
notes: human IgG4PE, lambda
For B1, in assay [1], the “Inhibition enzymatic activity human MTP2 protein (IC50)” value was determined as 17.7 nM. For the same molecule, the “Inhibition enzymatic activity mouse MTP2 protein (IC50)” value in assay [2] was 9.76 nM. The “Inhibition enzymatic activity human MTP2 on cells (IC50)” value in assay [3] was determined as 3.51 nM. Also, in assay [4], the binding result was “no binding (tested: analyte up to 100 nM)”. Besides, in assay [5], the “Binding Late top conc” value worked out at 7.9; the affinity, expressed as Kd, was 10.5 nM; the Stoichiometry is 0.63; the koff (as a rule, the first-order rate constant of dissociation) was determined as 0.000442 s⁻¹. In addition, the kon (as a rule, the rate constant with which the complex forms) in assay [5] was found to be 42300 M⁻¹ s⁻¹. In assay [6], the “Binding Late top conc” value came out at 4.5, the Kd (commonly the constant that tells how readily two partners part at equilibrium) came out at 24.4 nM, the koff amounted to 0.000324 s⁻¹ and the kon amounted to 13300 M⁻¹ s⁻¹.

B2: NORI-012 (antibody, human IgG4 S228P, lambda, V domains shown)
VH: EVQLVESGGGLVQPGRSLRLSCAASGFTFDDHVMYWVRQAPGKGLEWVSGISWNSDTIGYADAVKGRFTISRDNAKNVLYLHMNSLRPEDTALYYCAREKDGDFYYNYFVMDVWGQGTTVTVSP
VL: QSALTQPPSASGSPGQSVTISCTGTSSDVGFYNFVSWYQQHPDKAPKVMIYEVSKRPSGVPDRFSGSKSGNTASLTVSGLQAEDEADYYCSSYAGSNKVVFGGGTKLTVLG
notes: human IgG4PE, lambda
Take B2: the “Inhibition enzymatic activity human MTP2 protein (IC50)” value in assay [1] stood at 21.2 nM. Moreover, the “Inhibition enzymatic activity mouse MTP2 protein (IC50)” value in assay [2] stood at 11.5 nM. Moreover, the “Inhibition enzymatic activity human MTP2 on cells (IC50)” value in assay [3] amounted to 4.26 nM. In assay [4], the binding result is listed as “no binding (tested: analyte up to 100 nM)”. In assay [5], the “Binding Late top conc” value is 8.5; the affinity, expressed as Kd, was 9.13 nM; the Stoichiometry is 0.6; the koff came to 0.000427 s⁻¹. Also, in assay [5], the kon came out at 46700 M⁻¹ s⁻¹. In addition, in assay [6], the “Binding Late top conc” value came out at 4.6, the dissociation constant (Kd) was determined as 29 nM, the Stoichiometry stood at 1.08 and the koff was determined as 0.000337 s⁻¹. In assay [6], the kon amounted to 11600 M⁻¹ s⁻¹.

B3: NORI-009 (antibody, human IgG4 S228P, lambda, V domains shown)
VH: EVQLVESGGGLVQPGRSLRLSCAASGFTFNDHVIYWVRQVPGKGLEWVSTISWNSDTIAYADSVKGRFTISRDNAKNALYLQMNSLRTEDTALYYCAREKDGDFYYDYFAMDVWGQGTTVTVSS
VL: QSALTQPPSASGSPGQSVTLSCTGTSSDVGYYNYVSWYLQHPGKAPKLMIYEVSKRPSGVPDRFSGSKSANTASLTVSGLQAEDEADYYCSSYAGSNKVVFGGGTKVTVLG
notes: human IgG4PE, lambda
On to B3, for which, in assay [1], the “Inhibition enzymatic activity human MTP2 protein (IC50)” value was determined as 55.5 nM. For the same molecule, in assay [2], the “Inhibition enzymatic activity mouse MTP2 protein (IC50)” value is 17.6 nM. Also, the “Inhibition enzymatic activity human MTP2 on cells (IC50)” value in assay [3] turned out to be 5.68 nM. The binding result in assay [4] is “no binding (tested: analyte up to 100 nM)”. Moreover, in assay [5], the “Binding Late top conc” value is 8.6, binding was characterised by a dissociation constant (Kd) of 15 nM, the Stoichiometry amounted to 0.48 and the koff was found to be 0.00112 s⁻¹. In assay [5], this molecule had a kon of 74800 M⁻¹ s⁻¹. Moreover, in assay [6], the “Binding Late top conc” value was determined as 5, the Kd was found to be 19.6 nM, the Stoichiometry came to 0.47 and the koff worked out at 0.000693 s⁻¹. In assay [6], this molecule registered a kon of 35400 M⁻¹ s⁻¹.

B4: NORI-032 (antibody, human IgG4 S228P, lambda, V domains shown)
VH: QVQLVQSGAEVRKPGAAVKVSCKASGYTFSSFGITWIRQAPGQGLEWMGWISAYNGISNSAQKVQGRVTMTTDTSTSTAYMELRSLRSDDSAVYYCARDRANRDALDVWGQGTKVTVSL
VL: SHELTQPPSMSVSPGQTASITCSGDELGDRYACWYQQKPGQSPVLVIYQDTKRPSGIPERFSGSISGNTATLTISGTQAMDEADYYCQAWDSSTVVFGGGTKLTVLG
On to B4, for which, in assay [1], the “Inhibition enzymatic activity human MTP2 protein (IC50)” value was found to be 1.6 nM. Further, in assay [2], the “Inhibition enzymatic activity mouse MTP2 protein (IC50)” value turned out to be 0.716 nM. In assay [3], the “Inhibition enzymatic activity human MTP2 on cells (IC50)” value was 1.66 nM.

B5: NORI-033 (antibody, human IgG4 S228P, lambda, V domains shown)
VH: QLQLQESGPGLVKPSETLSLTCTVSGDSISSHTYWWGWIRQPPGKGLEWIGSMFYSGSTYYNPSLKSRVVISVDTSRNQFSLKVRSVTAADTAVFYCARHNNWGMENYFDDWGQGTLVTVSS
VL: SYALTQPPSVSVSPGQTARITCSADALPDQYGYWYQQKPGQAPVLVIYKDSERPSGIPERFSGSSSGTTVTLTISGVQAEDEADYYCQSADSSGSYVVFGGGTKLTVLG
Regarding B5, the “Inhibition enzymatic activity human MTP2 protein (IC50)” value in assay [1] amounted to 2.84 nM. In addition, the “Inhibition enzymatic activity mouse MTP2 protein (IC50)” value in assay [2] was determined as 1.73 nM. Further, the “Inhibition enzymatic activity human MTP2 on cells (IC50)” value in assay [3] was 0.206 nM.
